# Test results: patent US12012446B2, “Epstein-Barr virus antibodies and uses thereof” (priority 2017, dated 2024)
# B1: HB11: murine anti-EBV gp350 mAb, IgG1 κ; SEQ ID NO: 120 / 121; neutralizing (antibody, V domains shown)
# VH: PSLVKPSQTLSLTCSVTGDSITSGFWNWIRKFPGNKLEYMGYISYSGSTYYNPSLKSRISITRDTSKNQYYLQLNSVTTEDTATYYCARGNGGNYDWYFDVWGAGTTVTVSSAKTTPPSVYPLAPGSAAQTNSMVTLG
# VL: AIMSASLGEKVTMSCRASSSVNFMNWYQQKSDDSPKLLIYYISNLAPGVPARFSGSGSGNSYSLTISGMEGEDAATYYCQQFTSSPSWTFGGGTKLEIKRADAAPTV
# modifications: heavy chain mAb HB11; light chain mAb HB11
# notes: murine anti-EBV gp350 mAb, IgG1 κ; neutralizing
# B2: HB5: murine anti-EBV gp350 mAb, IgG2a κ; SEQ ID NO: 108 / 109; neutralizing (antibody, V domains shown)
# VH: AELVRPGASVKISCKAFGYTFTNHNINWVKQRPGQGLDWIGYINPYNDYTSYNQKFKGKATLTVDKSSNTAYMELSSLTSEDSAVYYCARSEGWLRRGAWFAYWGQGTLVTVSAAKTTAPSVYPLAPVCGDTTGSSVTLG
# VL: AILSVSPGERVSFSCRASQSIGTSIHWYQQRTNDSPRLLIKYASESISGIPPRFSGSGSGTDFTLSINSVESEDIADYHCQQSNSWPMLTFGAGTKLELKRADAAPTV
# modifications: heavy chain mAb HB5; light chain mAb HB5
# notes: murine anti-EBV gp350 mAb, IgG2a κ; neutralizing
# B3: h72A1: humanized 72A1 IgG1; heavy and light chain SEQ ID NOs: 180 and 181 (antibody, V domains shown)
# VH: EVQLVESGGGLVQPGGSLRLSCAASGSSFTDYTMNWMRQSPGKGLEWIGLINPYNGGTRYADSVKGRATLSLDKSKNTAYLQMNSLRAEDTAIYYCAGGLRRVNWFAYWGQGTLVTVSS
# VL: DAQLTQSPILLSASVGDRVTITCRSSTGAVTTSNYANWVQERTNGSFRGLIGGTNNRVPGVPSRFSGSLSGDDATLTISSLQPEDEADYFCVLWHSNHWVFGAGTKVEIKR
# B4: m72A1: EBV anti-gp350 neutralizing mouse antibody purified from HB168 hybridoma (ATCC); SEQ ID NO: 100 / 101 (antibody, V domains shown)
# VH: PELVKPGTSMKISCKASGSSFTDYTMNWMKQSHGKNLEWIGLINPYNGGTRYNQKFKGKATLTLDKSSSTAYMEVLSLTSEDSAVYYCAGGLRRVNWFAYWGQGTLVSVSAAKTTPPSVYPLAPGSAAQTNSMVTLG
# VL: QAVLTQESALTTSPGETVTLTCRSSTGAVTTSNYANWVQEKPDHLFTGLIGGTNNRVPGVPARFSGSLIGDKAALTITGAQTEDEAIYFCVLWHSNHWVFGGGTKLTVL
# modifications: heavy chain mAb 72A1; light chain mAb 72A1
# Key:
# [1] = test system: EBV-eGFP infection of Raji cells; test: EBV neutralization assay in Raji cells; assay type: cell-based, Epstein-Barr virus; settings: for blocking of EBV infection of Raji cells (in words) / blocking of EBV infection of Raji cells (nAb activity): protein G and size-exclusion chromatography-purified mAbs; for blocking of EBV infection of Raji cells (in words) / neutralization of EBV in Raji cells: 12.5-100 μg/ml; for neutralization of EBV in Raji cells (in words): spin-column purified mAbs, 12.5, 25, 50 and 100 μg/ml; for blocking of EBV infection of Raji cells (nAb activity): lowest concentration 12.5 μg/ml; for neutralization of EBV in Raji cells: spin-column purified mAbs
# Procedure: EBV neutralization assay was performed in Raji cells as previously described (47). Briefly, purified individual anti-gp350 mAbs were incubated with purified AGS-EBV-eGFP (titer calculated to infect at least 8% of HEK293 cells seeded in 100 μl of serum-free DMEM) for 2 hours at 37° C. To represent EBV infection of B cells, the pre-incubated anti-gp350 mAbs/AGS-EBV-eGFP were used to infect 5×10^5 Raji cells seeded in a 96-well plate for 2 hours at 37° C. Neutralizing 72A1 and non-neutralizing 2L10 anti-gp350 mAbs served as positive and negative controls, respectively. Infected cells were washed three times with PBS to remove any unbound viruses and antibodies. Washed, infected cells were incubated in 96-well plates at 37° C. for 48 hours post-infection and the number of eGFP+ (infected) cells was determined using flow cytometry. All dilutions were performed in quintuplicate and the assays were repeated three times. Antibody EBV neutralization activity was calculated as: % neutralization=(EBValone−EBVmAb)/(EBValone)×100.
# However, this antibody was recently reported to be a mixture of both functional and non-functional antibodies (50). […] The percentage of eGFP+ cells (percent infection) was determined using flow cytometry as described (47). The nAbs 72A1 and E1D1 were used as positive controls, whereas the anti-gp350 non-neutralizing mAb 2L10 and KSHV gH/gL mAb 54A1 were used as negative controls. Because HB4, HB13, HB15, HB16, HB19, HB21, and HB23 were confirmed to be polyclonal based on isotyping and/or sequence data, they were eliminated from further consideration in the neutralization assay. HB18 was not used in neutralization experiments because it was identical to HB8.
# The purified eGFP-tagged-EBV was titered in Raji cells to determine percent EBV infection using a range of volumes (50-250 μl) (FIG. 5A). Then initial neutralization of EBV was conducted in Raji cells using purified mAbs at various concentrations (12.5, 25, 50, and 100 μg/ml).
# EBV-eGFP+ cells were enumerated using flow cytometry.
# [2] = biological target: T1, purified EBV gp350/220 (recombinant EBV gp350 ectodomain) (Epstein-Barr virus, UniProt P03200); test: Indirect ELISA on recombinant EBV gp350 ectodomain; assay type: binding
# T1 construct: purified EBV gp350 ectodomain protein (AA 4-863); purchased Immune Technology Corporation
# T1 sequence (P03200 4-863): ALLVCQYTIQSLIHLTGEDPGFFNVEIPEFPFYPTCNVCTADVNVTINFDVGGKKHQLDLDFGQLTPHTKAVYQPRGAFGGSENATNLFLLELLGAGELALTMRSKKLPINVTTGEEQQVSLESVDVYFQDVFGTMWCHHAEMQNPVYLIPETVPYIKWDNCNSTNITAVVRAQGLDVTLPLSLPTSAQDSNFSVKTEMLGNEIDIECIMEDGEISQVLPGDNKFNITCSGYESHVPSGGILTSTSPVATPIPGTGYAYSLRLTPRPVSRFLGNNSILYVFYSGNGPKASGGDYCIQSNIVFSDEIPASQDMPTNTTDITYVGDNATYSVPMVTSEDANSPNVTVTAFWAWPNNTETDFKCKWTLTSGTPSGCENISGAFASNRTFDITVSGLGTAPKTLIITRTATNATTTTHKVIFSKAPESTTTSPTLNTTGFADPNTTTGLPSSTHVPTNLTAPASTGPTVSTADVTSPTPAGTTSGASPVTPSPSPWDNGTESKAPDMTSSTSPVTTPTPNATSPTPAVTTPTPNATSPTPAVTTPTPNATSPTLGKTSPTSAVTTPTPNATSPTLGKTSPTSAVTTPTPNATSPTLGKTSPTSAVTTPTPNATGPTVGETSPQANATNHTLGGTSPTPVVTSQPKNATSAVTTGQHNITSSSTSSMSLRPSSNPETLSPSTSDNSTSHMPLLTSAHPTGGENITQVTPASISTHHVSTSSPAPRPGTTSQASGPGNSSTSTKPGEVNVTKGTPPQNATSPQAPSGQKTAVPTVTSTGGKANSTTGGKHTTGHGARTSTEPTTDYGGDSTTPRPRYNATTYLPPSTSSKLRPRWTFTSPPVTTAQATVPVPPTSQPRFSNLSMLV
# Procedure: Briefly, immunoplates (Costar 3590; Corning Incorporated) were coated with 50 μl of 0.5 μg/ml recombinant EBV gp350 ectodomain (Immune Technology Corporation) diluted in 1× phosphate buffered saline (PBS, pH 7.4) and incubated overnight at 4° C. After washing three times with 1×PBS containing 0.05% (v/v) Tween 20 (washing buffer), plates were blocked with 100 μl washing buffer containing 2% (w/v) bovine serum albumin (BSA) (blocking buffer) then incubated for 1 h at room temperature and washed as above. 100 μl of hybridoma supernatant or 50 μl of 10 μg/ml purified mAbs was added to each well (in triplicate) and incubated for 2 h at room temperature. […] The plates were washed as described above, followed by incubation with 50 μl of goat anti-mouse IgG HRP-conjugated secondary antibody (1:2,000 diluted in 1×PBS) at room temperature for 1 h. The plates were washed again and 100 μl of chromogenic substrate 2,2′-azino-bis (3-ethylbenzothiazoline-6-sulphonic acid) (ABTS, Life Science Technologies) was added. The reaction was stopped using 100 μl of ABTS peroxidase stop solution containing 5% sodium dodecyl sulfate (SDS) in water. The absorbance was read at an optical density of 405 nm using an ELISA reader (Molecular Devices). All experiments were performed in triplicate and confirmed in three independent experiments.
# ELISA binding of anti-gp350 and anti-gH/gL to soluble gp350 and gH/gL proteins was performed. Soluble EBV gp350 and gH/gL proteins were used as the target antigen at 0.5 μg/ml. 1× phosphate buffered saline (PBS) was used as negative (not shown) control. Bound antibodies were detected using HRP-conjugated anti-mouse or anti-human IgG (1:2,000).
# [3] = biological target: T2, EBV gp350 stably expressed on CHO cells (Epstein-Barr virus, UniProt P03200); test: Epitope mapping by competitive cell binding assay with biotinylated mAbs; settings: for competitive binding versus m72A1 and h72A1 (in words): biotinylated antibodies; for antigen binding competition with biotinylated m72A1 (in words) / % inhibition of biotinylated nAbs (biotinylated m72A1): biotinylated m72A1 1 μg/ml; for antigen binding competition with biotinylated m72A1 (in words): unlabeled mAbs 500-67.5 μg/ml; for % inhibition of biotinylated 54A1: 1 μg/ml biotinylated 54A1, 500 μg/ml unlabeled mAb; for % inhibition of biotinylated HB1: 1 μg/ml biotinylated HB1, 500 μg/ml unlabeled mAb; for % inhibition of biotinylated HB5: 1 μg/ml biotinylated HB5, 500 μg/ml unlabeled mAb; for % inhibition of biotinylated HB11: 1 μg/ml biotinylated HB11, 500 μg/ml unlabeled mAb; for % inhibition of biotinylated HB17: 1 μg/ml biotinylated HB17, 500 μg/ml unlabeled mAb; for % inhibition of biotinylated HB20: 1 μg/ml biotinylated HB20, 500 μg/ml unlabeled mAb; for % inhibition of biotinylated h72A1: 1 μg/ml biotinylated h72A1, 500 μg/ml unlabeled mAb; for % inhibition of biotinylated m72A1: cross-competition, 1 μg/ml biotinylated m72A1, 500 μg/ml unlabeled mAb
# T2 construct: stably co-transfected with full-length pCAGGS-gp350/220 and pCI-puro vector; expressed in transfected cells; host or cells: CHO cells
# T2 sequence (P03200 whole entry): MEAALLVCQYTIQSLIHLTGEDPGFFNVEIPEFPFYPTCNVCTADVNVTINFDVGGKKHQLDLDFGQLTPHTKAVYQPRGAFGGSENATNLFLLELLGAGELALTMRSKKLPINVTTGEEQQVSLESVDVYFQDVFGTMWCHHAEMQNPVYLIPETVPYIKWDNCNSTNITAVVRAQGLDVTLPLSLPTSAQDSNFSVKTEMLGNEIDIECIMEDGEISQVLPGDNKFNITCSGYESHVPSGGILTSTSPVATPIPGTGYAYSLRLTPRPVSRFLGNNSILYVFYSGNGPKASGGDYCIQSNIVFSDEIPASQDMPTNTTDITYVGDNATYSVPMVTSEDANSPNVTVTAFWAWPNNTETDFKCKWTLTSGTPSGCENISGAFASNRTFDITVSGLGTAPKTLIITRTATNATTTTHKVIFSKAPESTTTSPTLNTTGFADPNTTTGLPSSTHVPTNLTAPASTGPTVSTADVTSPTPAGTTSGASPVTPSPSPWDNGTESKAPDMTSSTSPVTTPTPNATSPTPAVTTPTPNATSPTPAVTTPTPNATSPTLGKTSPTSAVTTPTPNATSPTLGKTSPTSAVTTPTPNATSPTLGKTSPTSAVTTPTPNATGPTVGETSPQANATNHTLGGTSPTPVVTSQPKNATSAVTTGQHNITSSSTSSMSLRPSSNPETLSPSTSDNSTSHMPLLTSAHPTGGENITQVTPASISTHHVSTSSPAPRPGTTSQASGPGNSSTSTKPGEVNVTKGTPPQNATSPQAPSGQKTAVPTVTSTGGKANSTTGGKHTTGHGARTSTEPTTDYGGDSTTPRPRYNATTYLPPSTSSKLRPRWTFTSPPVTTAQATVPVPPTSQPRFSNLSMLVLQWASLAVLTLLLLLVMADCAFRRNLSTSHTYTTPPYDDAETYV
# Procedure: To evaluate conformation epitope mapping of the selected mAbs, competitive binding assays were conducted using biotinylated mAbs. A one-step antibody biotinylation kit (MACS Miltenyi Biotec) was used to biotinylate the mAbs. Approximately 1×10^5 CHO cells that stably expressed EBV gp350 were incubated for 2 hours with serially diluted ([…]) unlabeled competitor mAbs and non-specific anti-KSHV gH/gL 54A1 mAb. After being washed with PBS, the cells were incubated for 2 hours in the presence of 1 μg/ml biotinylated mAbs. To determine maximum binding, cells in which the biotinylated mAb was added in the absence of unlabeled mAbs were included in the assay. Cells were washed with PBS, followed by incubation for 1 hour with anti-biotin AF488 at a dilution of 1:500. After the final wash in PBS, cells were resuspended in 1% paraformaldehyde and analyzed by flow cytometry as described above. Percentage of inhibition was calculated as: 100−[(% fluorescent cells with competitor mAb/% fluorescent cells without competitor mAb)×100]. The complete prevention of binding of a biotinylated mAb by its unlabeled counterpart was used as a validation of the assay, as previously described (84).
# At least seven unique CD21 binding epitopes on EBV gp350 have been predicted (Table 3).
Molecule,blocking of EBV infection of Raji cells (in words) [1],neutralization of EBV in Raji cells (in words) [1],ELISA binding to purified EBV gp350/220 ([2]; purified antibodies 10 μg/ml),competitive binding versus m72A1 and h72A1 (in words) [3],antigen binding competition with biotinylated m72A1 (in words) [3],blocking of EBV infection of Raji cells (nAb activity) [1],neutralization of EBV in Raji cells [1],% inhibition of biotinylated 54A1 [3],% inhibition of biotinylated HB1 [3],% inhibition of biotinylated HB5 [3],% inhibition of biotinylated HB11 [3],% inhibition of biotinylated HB17 [3],% inhibition of biotinylated HB20 [3],% inhibition of biotinylated h72A1 [3],% inhibition of biotinylated m72A1 [3],% inhibition of biotinylated nAbs (biotinylated m72A1) ([3]; unlabeled mAb 67.5 μg/ml),% inhibition of biotinylated nAbs (biotinylated m72A1) ([3]; unlabeled mAb 125 μg/ml),% inhibition of biotinylated nAbs (biotinylated m72A1) ([3]; unlabeled mAb 250 μg/ml),% inhibition of biotinylated nAbs (biotinylated m72A1) ([3]; unlabeled mAb 500 μg/ml),further results
B1,blocked EBV infection in a dose-dependent manner,dose-dependent neutralization,+,bound targets that overlapped with those of both m72A1 and h72A1,Antigen binding competition was observed,–,–,–,–,–,–,–,–,–,–,–,–,–,–,–
B2,blocked EBV infection in a dose-dependent manner,dose-dependent neutralization,+,bound targets that overlapped with those of both m72A1 and h72A1,Antigen binding competition was observed,90%,60-80%,–,–,–,–,–,–,–,–,–,–,–,–,"EBV neutralization, summary statement ([1]; as stated in Example 8): non-neutralizing; ELISA binding strength to gp350, compared with m72A1 / parental antibody ([2]; soluble gp350 0.5 μg/ml): equal to or greater than that of the positive control, m72A1"
B3,–,–,–,–,Antigen binding competition was observed,98%,–,0%,87%,97%,79%,31%,26%,98%,98%,89%,93%,95%,98%,–
B4,–,dose-dependent neutralization,+,–,–,93%,35-80%,1%,82%,97%,90%,37%,31%,98%,98%,97%,94%,93%,91%,ELISA signal relative to negative control 54A1 ([2]; purified antibodies 10 μg/ml): greater than two times those of anti-KSHV gH/gL mAb 54A1
